Laboratory results as given in patent CN110938146A (UNIV HUAZHONG AGRICULTURAL, dated 2020).

Biological target: T1, TIM-3重组蛋白 (human, UniProt Q8TDQ0 22-200, limits assumed)
T1 construct: also called 重组TIM-3蛋白; 固定化TIM-3
T1 sequence (looked up): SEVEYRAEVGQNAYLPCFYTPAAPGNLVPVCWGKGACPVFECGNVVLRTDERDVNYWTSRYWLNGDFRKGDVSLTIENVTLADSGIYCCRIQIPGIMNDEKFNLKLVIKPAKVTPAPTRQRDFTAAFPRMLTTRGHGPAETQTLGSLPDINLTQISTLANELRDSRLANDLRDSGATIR
Assay: ELISA: TIM-3 coated at 5 ug/mL, biotinylated sdAb titrated 1:2 from 200 ug/mL, HRP-streptavidin, Prism fit

Kd: 0.278 µM
B1: TIM-3-CX153 (VHH)
VHH: QSMEESGGRLVKPDETLTLTCTVSGFSLSSYSMIWVRQAPGKGLEWIGIIGTTGNTYYASWAKGRFTISKTSTTVDLKMTSLTSEDTATYFCARYYADGVFDLWGQGTLVTVSS
notes: Expressed in E. coli BL21 from pET28 and purified on a His nickel column; also called TIM-3-CX153-HisFlag; TIM-3-CX153单抗
